Results taken from publication PMC4245933.

T1: His-KDM4D-FL (human, UniProt Q6B0I6 1-523)
T1 sequence: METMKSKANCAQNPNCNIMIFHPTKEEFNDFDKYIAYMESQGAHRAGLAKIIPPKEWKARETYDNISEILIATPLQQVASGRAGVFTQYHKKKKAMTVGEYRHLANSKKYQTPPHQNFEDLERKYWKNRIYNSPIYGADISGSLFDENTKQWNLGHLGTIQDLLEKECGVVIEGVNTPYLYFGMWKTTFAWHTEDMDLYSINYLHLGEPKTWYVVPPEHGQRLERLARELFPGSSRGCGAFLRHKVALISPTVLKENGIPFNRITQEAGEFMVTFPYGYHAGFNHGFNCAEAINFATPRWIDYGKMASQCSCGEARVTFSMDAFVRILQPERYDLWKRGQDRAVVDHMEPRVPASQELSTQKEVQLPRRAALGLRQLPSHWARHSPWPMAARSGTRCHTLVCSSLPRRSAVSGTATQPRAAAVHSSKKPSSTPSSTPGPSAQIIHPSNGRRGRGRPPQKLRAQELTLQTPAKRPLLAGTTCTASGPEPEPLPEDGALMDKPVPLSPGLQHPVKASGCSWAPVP

T2: His-KDM4D-FL-1H4R-HRK (human, UniProt Q6B0I6 1-523, H115A;R123A;K127A;H219A;R222A;R225A;R228A;R236A)
T2 sequence: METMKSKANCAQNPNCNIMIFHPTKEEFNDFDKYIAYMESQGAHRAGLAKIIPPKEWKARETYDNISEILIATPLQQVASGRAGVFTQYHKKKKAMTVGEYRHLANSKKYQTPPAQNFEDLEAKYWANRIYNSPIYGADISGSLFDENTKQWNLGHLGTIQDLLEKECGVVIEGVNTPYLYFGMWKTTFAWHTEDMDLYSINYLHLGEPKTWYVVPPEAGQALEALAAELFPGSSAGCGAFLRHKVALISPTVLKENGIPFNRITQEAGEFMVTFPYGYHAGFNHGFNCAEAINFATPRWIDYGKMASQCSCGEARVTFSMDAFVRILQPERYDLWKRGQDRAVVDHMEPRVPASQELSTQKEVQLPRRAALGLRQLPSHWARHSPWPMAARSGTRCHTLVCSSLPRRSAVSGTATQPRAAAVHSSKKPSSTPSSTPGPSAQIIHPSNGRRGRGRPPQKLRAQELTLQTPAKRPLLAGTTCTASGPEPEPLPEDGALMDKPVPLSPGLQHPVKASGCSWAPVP

T3: GST-KDM4D348-523 (human, UniProt Q6B0I6 348-523)
T3 sequence: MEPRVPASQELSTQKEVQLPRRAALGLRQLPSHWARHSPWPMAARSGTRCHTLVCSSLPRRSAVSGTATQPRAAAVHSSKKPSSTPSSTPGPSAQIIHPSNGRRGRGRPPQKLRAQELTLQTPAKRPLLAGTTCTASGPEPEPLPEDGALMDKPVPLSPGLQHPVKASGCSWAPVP

T4: His-KDM4D-N202M (human, UniProt Q6B0I6 1-523, N202M)
T4 sequence: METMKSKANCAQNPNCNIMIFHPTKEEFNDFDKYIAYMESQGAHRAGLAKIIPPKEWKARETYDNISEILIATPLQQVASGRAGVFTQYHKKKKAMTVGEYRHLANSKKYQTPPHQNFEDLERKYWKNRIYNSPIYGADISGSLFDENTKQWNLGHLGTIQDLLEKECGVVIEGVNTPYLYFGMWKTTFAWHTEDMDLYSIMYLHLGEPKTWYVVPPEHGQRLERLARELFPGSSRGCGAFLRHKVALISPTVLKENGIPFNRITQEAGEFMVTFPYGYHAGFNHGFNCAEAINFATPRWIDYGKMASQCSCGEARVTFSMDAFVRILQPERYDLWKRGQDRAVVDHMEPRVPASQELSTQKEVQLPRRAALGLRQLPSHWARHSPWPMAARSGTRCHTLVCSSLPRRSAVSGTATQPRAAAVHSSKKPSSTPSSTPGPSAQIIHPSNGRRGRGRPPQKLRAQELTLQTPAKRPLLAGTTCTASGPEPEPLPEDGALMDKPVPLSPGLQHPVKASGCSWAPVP

T5: His-KDM4D1-350 (human, UniProt Q6B0I6 1-350)
T5 sequence: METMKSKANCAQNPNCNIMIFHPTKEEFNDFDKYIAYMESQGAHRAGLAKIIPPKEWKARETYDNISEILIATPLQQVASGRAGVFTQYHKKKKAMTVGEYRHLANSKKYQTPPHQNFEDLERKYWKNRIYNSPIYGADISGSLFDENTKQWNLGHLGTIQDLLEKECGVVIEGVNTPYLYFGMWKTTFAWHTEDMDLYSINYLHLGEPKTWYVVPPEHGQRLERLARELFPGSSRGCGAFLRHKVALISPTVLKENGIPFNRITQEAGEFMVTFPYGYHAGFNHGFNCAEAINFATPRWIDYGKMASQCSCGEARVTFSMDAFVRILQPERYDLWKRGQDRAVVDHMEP

T6: His-KDM4D1-350-1H4R-HRK (human, UniProt Q6B0I6 1-350, H115A;R123A;K127A;H219A;R222A;R225A;R228A;R236A)
T6 sequence: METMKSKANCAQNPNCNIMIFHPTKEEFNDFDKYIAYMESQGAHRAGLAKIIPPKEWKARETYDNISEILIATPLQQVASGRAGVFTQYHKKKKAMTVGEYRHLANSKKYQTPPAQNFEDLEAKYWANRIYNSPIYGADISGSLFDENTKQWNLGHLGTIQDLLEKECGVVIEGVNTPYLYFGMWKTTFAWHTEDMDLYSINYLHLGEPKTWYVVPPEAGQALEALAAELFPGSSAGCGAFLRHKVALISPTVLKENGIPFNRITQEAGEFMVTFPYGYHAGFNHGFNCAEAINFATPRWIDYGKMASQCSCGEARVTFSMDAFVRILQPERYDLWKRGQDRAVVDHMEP


What was measured:
His-KDM4D-FL [1] = molecular target: T1, His-KDM4D-FL; assay: EMSA
His-KDM4D-FL-1H4R-HRK = molecular target: T2, His-KDM4D-FL-1H4R-HRK; assay: EMSA
GST-KDM4D348-523 = molecular target: T3, GST-KDM4D348-523; assay: EMSA
His-KDM4D-N202M = molecular target: T4, His-KDM4D-N202M; assay: EMSA
His-KDM4D1-350 [2] = molecular target: T5, His-KDM4D1-350; assay: EMSA
His-KDM4D-FL [3] = molecular target: T1, His-KDM4D-FL; assay: fluorescence anisotropy
His-KDM4D1-350 [4] = molecular target: T5, His-KDM4D1-350; assay: fluorescence anisotropy
His-KDM4D1-350-1H4R-HRK = molecular target: T6, His-KDM4D1-350-1H4R-HRK; assay: fluorescence anisotropy

| Binder | Kd (His-KDM4D-FL [1]) [nM] | Kd (His-KDM4D-FL-1H4R-HRK) [nM] | Kd (GST-KDM4D348-523) [nM] | Kd (His-KDM4D-N202M) [nM] | Kd (His-KDM4D1-350 [2]) [nM] | Kd (His-KDM4D-FL [3]) [nM] | Kd (His-KDM4D1-350 [4]) [nM] | binding result (His-KDM4D1-350-1H4R-HRK) |
| --- | --- | --- | --- | --- | --- | --- | --- | --- |
| 100nt RNA (ssRNA) RNA: GGGCGAAUUGGGCCCGACGUCGCAUGCUCCCGGCCGCCAUGGCGGCCGCGGGAAUUCGAUUAGUUCCCCUAAUAAUCGGUGCCCCCGAUAUGGCGUUUA | ~20 | > 100 | > 100 | ~15 | ~80 | – | – | – |
| GGGCGAAUUGGGCCCGACGUCGCAUGCUCCCGGCCGC (ssRNA) [37nt RNA] | < 50 | – | – | – | – | – | – | – |
| UUAACACAAAAUACGCACCCCA (ssRNA) [22nt RNA (RNAF-22)] | – | – | – | – | – | ~126 | ~1220 | no binding |
